These results are taken from article PMC4761948 (2016).

The target in this test is T1, GST-GCM1 (Homo sapiens (Human), UniProt Q9NP62).
T1 chain: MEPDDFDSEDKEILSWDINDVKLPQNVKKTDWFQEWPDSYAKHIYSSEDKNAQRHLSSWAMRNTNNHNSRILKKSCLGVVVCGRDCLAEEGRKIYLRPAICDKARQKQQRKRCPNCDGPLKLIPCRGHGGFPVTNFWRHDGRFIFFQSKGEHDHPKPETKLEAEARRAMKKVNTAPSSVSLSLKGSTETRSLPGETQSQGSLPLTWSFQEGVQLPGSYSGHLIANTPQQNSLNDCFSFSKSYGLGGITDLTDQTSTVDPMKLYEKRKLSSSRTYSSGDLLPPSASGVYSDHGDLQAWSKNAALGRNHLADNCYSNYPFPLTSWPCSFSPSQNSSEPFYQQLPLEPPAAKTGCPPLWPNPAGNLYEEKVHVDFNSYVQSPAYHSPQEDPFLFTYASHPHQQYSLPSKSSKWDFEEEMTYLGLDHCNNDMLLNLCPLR
Put plainly: GST pull-down.

B1: GATA3-FLAG (protein)
chain: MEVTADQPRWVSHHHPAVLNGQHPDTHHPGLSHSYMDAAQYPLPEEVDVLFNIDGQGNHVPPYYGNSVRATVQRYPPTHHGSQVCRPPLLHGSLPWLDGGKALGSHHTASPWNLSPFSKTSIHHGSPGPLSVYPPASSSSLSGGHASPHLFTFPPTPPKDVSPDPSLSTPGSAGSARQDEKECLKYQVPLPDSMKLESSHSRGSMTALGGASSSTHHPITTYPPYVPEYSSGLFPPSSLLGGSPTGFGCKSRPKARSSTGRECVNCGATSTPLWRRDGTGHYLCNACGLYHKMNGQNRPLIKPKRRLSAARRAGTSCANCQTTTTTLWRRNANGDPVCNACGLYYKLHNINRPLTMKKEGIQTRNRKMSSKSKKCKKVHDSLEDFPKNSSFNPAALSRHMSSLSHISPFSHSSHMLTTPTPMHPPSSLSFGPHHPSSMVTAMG
On to B1, for which the binding result is “binds”.
